Measured values: the DeepSol protein solubility set

Experiment: soluble on expression in E. coli; label from the status in PepcDB or PDB records

Sequence	soluble on expression in E. coli
MSLEPSVTGPSEAPVLDTAWMKAVPSVRPVPAGSAAEALEALAVKGRAADDSYERTAFGQAWLDVDRNGCDTRNDILRRDLAGVQFTEGSRCRVAGGEFHEPYTGAVVTFTRGAESSKAVQIDHVVALGDAWQKGAQQLTPQQRQSLANDPLNLVAADGPANQEKSASDAASWLPKNKTFRCHYVARQISVKAAYGLWVTQPEKDAMKRVLDSCPQQQTVMPREGHHHHHH	soluble
MSLEQNFIRLYQDSFREHWALPALTNYDTKESYTYGEMAADIARRHLLFERIGLKPGDKVALLGKDSAEWCMAFMSVITYGAIIVPVLPDFNAADAASIVTHSDAKYLFVSDKIWETMDPSQLLLLCGAVSIRDYTVFLDRTEGGLLSQEVEGLSRSFSEHYPSGFTAEDIRYAEVSNDDLILLNYTSGTTGFSKGVMLRANNLAGNVTYVKDRDIMFRGETILCFLPLAHTYSCAFNFLTPLTIGVHVYILGKIPSPLTLIKAFADVRPSFVIMVPLIIEKLYHKAIAPKIKTPLIKFLLRLPVLKKVIHKSIRSKLIESFGGNFRQIIIGGAALNDEVAHFLYRIGFPLTVGYGMTECGPLISYEDHSLWLPGSCGKSLSIMEVRIDHSGQERHSDSGDVGEIQVRGENVCLGYYKNAELTAELFTPDGWMRTGDLGTIDSLGNIFIKGRSKTMLLGSNGQNIYPEEIESKINNLSYVLESIVTERDGRLIALIVPDRQAIEHKGISPDQAWAYIERSRAELNGQVGAYEKITAFVRHDEEFEKTPKHSIKRFLYTEGHHHHHH	soluble
MSLEQTVDIEVQGIRGFRAVRNTDLNVNLINKEEMDGSERYQHLVTKAVDRGLRVFGYYESSVRFERKQRQGKRDLLIAHVTPGEPTKIAGTDVQIEGEAAQDENFNALRKNLPKDGVLVEHQTYDDYKTAISRLALNRGYFDGNFKISRLEISPETHQAWWRMLFDSGVRYHYGNITFSHSQIRDDYLNNILNIKSGDPYLMNNLSDLTSDFPSSNWFSSVLVQPNVNHKSKTVDVEIILYPRKKNAMELGVGFSTDGGVHGQIGWTKPWINSRGHSLRSNLYLSAPKQTLEATYRMPLLKNPLNYYYDFAVGWEGEKENDTNTRVLTLSALRYWNNAHGWQYFGGLRMRYDSFTQADITDKTLLLYPTVGFTRTRLRGGSFATWGDVQKITFDLSKRIWLSESSFIKVQASSAWVRTYAENHRVVARAEIGYLHTKGIEKIPPTLRFFAGGDRSVRGYGYKKIAPKNRNGKLVGGSRLLTTSLEYQYQVYPNWWAATFADSGLAADNYTAKELRYGTGVGVRWASPVGAIKFDIATPIRDKDNSKNIQFYIGLGTEIEGHHHHHH	not soluble
MSLERLNKPSAPRYSRLREWVVGCAPNDLVVVKFGGSVLNGSPGFLAAGRLVLGLLESGLEPVVVVSAVKGVTDALLSSFERRDPGVGGAVGKTYLSIARELGLPPESVRDVSLASAEVSKLLWAAEVLGQWTPRVRDLVVSYGERLSAALMAGLLRRLGVEARWLGGGEAGIVTDGEFGDATPLYGYTEGVIRERLEPMLEEGVVPVVAGFTGATREGDTTLLGRGGSDLTATLLASALGAGRVVLYTDVPGILSGDPRVVGEPRRVGYMSYEEAWEVARLGLRKFHPRTFEPLIAGGLGVEVVVSDLRGRSTRIGPGRGGPPLKVVSLSRGVARLVVRGPSMAGKRGFLSRLAGLLAGRGVNILAIRQPPSETAIELVVDERDLPAAVEELGARSGAAGVRLEVERGFDVVSIVGWGAVEALPEALSAAEKTGGRLLSTGELSPSISILARGRTSPELARLLHRRVVESWVTGEGHHHHHH	not soluble
MSLESPELKALVDAGKLPAVEKRLPKEPLVLTPLESVGTYGGTWRTATFGGGDSEIERSIGYTRLVRWNPEWTEVIPDIAKSVEVNDNATEYTFTLREGTRWSDGEPFTADDLVWWNENVLRNTKITPAAPNWLTAGGETVKVEKLADDKVIFKFAAPNGLFLMNMATVRGSDILAAAPAHYLKQFHKDFNPDGIDALVKAAGATDWVQLFNNKIGFPGRWRDLGRPTLDAWVLTAPYNGTTQVVGERNPYYAKVDTAGNQLPYFDRITIDVMQDTQAIILKAISGEIDMQNRFIETTDARTVIVQNQEKGGYGLFIARPAWSNALLITLNQTHKNPALRAVFSNKDFRIGLSYAINREELNQLIYAGQAKPYQAAPREGTALYDEKMATQYLEYNVDLANQYLDKAGLTKHDAEGYRLGQDGKRITFAIDALTGSPIQVDALEMIQRYWRAVGIDMQPRPAERSLIFSRLQNNENDGLGWVGGGGYDFLGLLDPKWYFPHEYESSFATAWGLYYQNPKDPNAQEPSPAAKKQMDLYRQVQEAPTLEKQLAAMKELLAITRDEFYVIGTNLEPDRVGIVKTNMRNVPKVIPSTSFYMTPGPAKPETFYYQQEGHHHHHH	soluble
MSLETELPQAQDGSVRLLQITDTHLFASAEGRLLAVRTAESLAAVLERVQANDHPFDLILATGDLSQDHSPESYQRFASMMAPLARPIYWLPGNHDDGPLMTEYLHAAGISEAKQLVGEHWQVILLDTQVRGKPHGVLGDHQLAALDQALRQHPERHALIALHHQAVPVGCAWLDQHNLKPTTLFAVLARHPQQKTILFGHVHQEFDETAGMRLIASPSTCIQFKPLSDGLRAGREGHHHHHH	not soluble
MSLFFSLPYRFNVLSVVIASIPTLAFPTTFSDSTFFHKDWEIVCDNTLTCRAAGYSPEEKGMGEDTGTQDVSLLITRHAGQNTPITAEVTLAEVDKEIPKGTRLTLAIDGVDKGVLTSTEDNLWQLNETQIPAVLQALKGRGKVAFLHDGMVSELSGAGAYAVLLKMDERQGRIGTTDAITKKGNKSSELSAVAAPVIYAAATSQEPSRNLTNAEQAAIQKKLLKTLKEDDCYDFPPQEERVAEPMMITPLNGSMSLLSTLCWRAAYNEGYAYWVIDNAMQTQPQLMTTIGVGYENGEITAVQKGRGLADCMSDSAWVWDGKTFQQSRASITGSCRMIRLGGTWDLPYWTATVIRPGKEGHHHHHH	soluble
MSLFINMYRQLLSLPLSALVKNNPIPANPIEELSLNIHQPIVYVLPYTSQTDFVIFRRNCLALGLPDPAEKNEINGVKLPRYVYLDEGRRIFKSKGAKDETTTIFNKYLELHRTSESLDVQLIPVSVLWGRSPGQEDKSDLPNLRLLNGIQKTFAAIWFGRDTFVRFSQAVSLRYMVVEHGSDEKIAQKLARVAKMHFAKQRISATGPRLPNRQAMFNKLLQSEAIRRAIEDEAKSKNISIEKAQKEAYKILDEIAADVSHSSLRAVDRFLRWLWNKLYSGINVQNSNRVRKLALEGHEIVYVPCHRSHIDYLLLSYVLYHQGLVPPHIAAGINLNFWPIGRMFRSWGAFFIRRTFKGNRLYSAIFREYLSELFHRGYSVEYFIEGGRSRTGRLLAPKTGMMSMTLQALQHSQTRPISIVPVYVGYEHVLEVDTYAKELRGAAKEKENAGLVLRVIKKLRNLGQGFVNFGEPITLSNYLSQHFPDWKEQNHEEKPQWFTPAVNNISKQVMININKAAAVNSMNLVGTALLSSRQRALSREQLLEQLSSYQQLLQNVPYSTDVVLPNVTPQAMLEHVLALDRIGVLIEKDNFGEIVRLERSSAVLMTYYRNNIQHLFVLPSLVASIILHYEAIQKDLLLDAIRKIYPFLQGELFLHFNEDELNVQIHQIINEFARQSVINSNDNFLSINKSKVRILQLWSAGMLEILQRYYITVTILQKQPAISRAELEKESQLVAQRLSVLHGINAPEFFDKAVFSSFIANLKEQRYFDESGYTVLDKIEELASTLSHLISTEICLTVKGTIEKSEDLSSEGHHHHHH	soluble
MSLFTNLVKMGKKLKNLTKKYQLNKEKIEKFITVRKRLTFLGERPSVVEKPVVVKFGGTSVRYAFEEALELVANLNENTRTIVVVSALAGVTDCLLRLANGDMSALLEIEEIHEELSQELDVQLDHLMYQLHKTLNSKSSFPSKEAFVDEIASFGERFSAELFSEGLKILGINAKAVDSKDILFAKGDYGNAEVDFKKSVYGAGILYRMLRRGIVPVVTGYYGNLNGFRATFGRGGSDYSATSIARLVNAKATLIMSDVEGIYTADPKLVPSAKLIHYISYREAKIAAKLGMKALHHRAIDPVEGRIPVILGKTRDLKFGTLISHKSQGIPVVVHKLIEDHAEVSVVSTRRSFSLPYEVYEEGDFYFKIKIPKEQFLEVLKDIHRRVVENESLRPSYDSELWAWVEGHHHHHH	not soluble
MSLGAMKRLALLVPERANIASLENARQGFLAANGFLRERGCAPRFDVRLVAATPQVRLDHGRITVQADTVLEAVGEVDLCVVPPIQGDPQPALQENGALIDWLAGYYKNGGEVASLCVGAALLAAGGVLDGQRAVVHWAAQSDFGRLFPAVRWVSDRVVLEANGIYTSGGAFSAAHLVLHLVDKYTDRETAIWCAKLFQLDWSREGHHHHHH	soluble
MSLGDGNVEVAIIAYPYMSNFNEFYALVKSNARVSFVRKPKETAKADLVILPGSRNTLESLKWLVENGFVEQLRQRSMNILGICGGFQILGKKIVDPYGIEAGYPTEYEGLGIFDINVHYSKDKVVSMTTGISEYGEMNGYEIRRGVIKYMGEKPLLKITLRNGEKVSVEDGAKKDNIIGISVHGTLFSDGMKKLLKEFNINIHSQSMEEGHHHHHH	soluble
MSLGDLEQKIIAMDLWHLALPVVSARDHGIGRVEGSCEIVVLRLVAEGGAEGFGEASPWAVFTGTPEASYAALDRYLRPLVIGRRVGDRVAIMDEAARAVAHCTEAKAALDSALLDLAGRISNLPVWALLGGKCRDTIPLSCSIANPDFDADIALMERLRADGVGLIKLKTGFRDHAFDIMRLELIARDFPEFRVRVDYNQGLEIDEAVPRVLDVAQFQPDFIEQPVRAHHFELMARLRGLTDVPLLADESVYGPEDMVRAAHEGICDGVSIKIMKSGGLTRAQTVARIAAAHGLMAYGGDMFEAGLAHLAGTHMIAATPEITLGCEFYQASYFLNEDILETPFRVEAGQVIVPDGPGLGARADPEKLEHYAVRRSGEGHHHHHH	soluble
MSLGEAEARVVLNMNTGWAFHRGEVESGGQPGLDDSGWIAAIIPHIMQLEKKHCGGDIIYDGVGWYRRTFRVPSQYKDKQIKISFEGVMNACEVYLNGQKISAHRGGYVGFVTDITTRINWDRDNLLAVRVSAEYDPLTPPGKPQAGMDFYYYSGIYRDVEMVISDPLHITHALEEEEVAGGGIFVTYPVVGKEKAVTHVKAHVRNEGKRKRKAQLRTQLIDKSGKIVACQLTPFRLSAGEAIHLEQNLEIVHPSLWHPYDPNLYTLQNEIVENGKVVDCHTESIGIRTIAYTRDGGFYINGESLYLRGANRHQAFAHIGDAAANSMQERDVIDLKRGGCNAVRAAHYPQDPAFLAACDKYGLLVVECIPGWQYFKNDSTFISRLYEVGKQMIRRDRNHPSVILWETALNESRYPAEIARNLYAIAHIEYPGDQMYTAGDYFGHADRVDCFDVFYKQVSRFPKDGDVMSNYPEDQIAVKPLFCREWGDGVGEKPRVSLMENEEEQLKQCRGRFLQLNGHGYFDWCMLDANPRMGGHFLWSYNDYARGAEQETMFCGIVDINRYPKFSYYMMQSMRDKEISQEGHHHHHH	soluble
MSLGETAGKLPRKPTLGPETAGATLVIPGETDRLASLYARAQAEGGKVVLWAGGDAPNQMDWLKTAFESRFPGVTLDVTVDLSKFHDLRIDQELAAGTLTPDVAMLQTTFDFDKWKARDVLLRYKPVGFARQKKGYADPDGAYVTAYNNAFVPTYASVRLPAERYPTRFADYLKPAFKGKLVLTYPHDDDAVLYVYDKLERRYGSGFLRALAAQKPNFLRGTAAPAASVGADSIGSLGNLTGYATDSDTPAGYFIPTDEPFIVWNQRAAIFKAARHPATAKLLLSYLGSAEFQSSYGGWRARADVGEAPGLPPLESLKNVDVHDFTRWMTDRQRVASLRRHMAEIFGPVRGESPLRDPALMSLLGLTANDIVALPEPDLPIYEGHHHHHH	soluble
MSLGFFNKLRQLAEDGTKMAQDGYARFNNAAFADATMAACALIGAADGQIDSQERSRTAQFITSSDKLRTFDVSKLREKYERYCDVISRDFDFGKIELMQVIGKVRKPEEARAVVQLAVVIANADGDFDAREQAVMREVIHALGLSPAEFGEGGSHHHHHH	soluble
